Bridge positions count the residues as written; N and C are the ends. Square brackets hold non-standard residues; d marks the D form. Ends that are not written are not given here. NMeL = CN[C@@H](CC(C)C)C(=O)O; Phg = N[C@H](C(=O)O)c1ccccc1; NMeV = CN[C@H](C(=O)O)C(C)C; Orn = NCCC[C@H](N)C(=O)O; ATU = not defined here; Aib = CC(C)(N)C(=O)O; Sar = CNCC(=O)O
B1: 3G3 truncation 2: … (peptide)
peptide: GPCLGVLGKLCPG
B2: 3G3 truncation 3: … (peptide)
peptide: PCLGVLGKLCPG
B3: 3G3 truncation 4: … (peptide)
peptide: CLGVLGKLCPG
B4: 3G3 truncation 5: … (as printed) (peptide)
peptide: AGPCLGVLGKLCG
B5: LJP 690 … (peptide)
peptide: CLGVLGKLC
modifications: disulfide 1-9 (inferred)
B6: CCTE, LJP 698 (cyclic thioether analog of 3G3, C-LGVLGKL-C) (peptide)
peptide: CLGVLGKLC
modifications: cyclic thioether in place of the disulfide
B7: HCTE, LJP 699 (cyclic thioether analog of 3G3, Hc-LGVLGKL-C) (peptide)
peptide: XLGVLGKLC
modifications: homocysteine (Hc) at position 1; cyclic thioether
B8: CHTE, LJP 702 (cyclic thioether analog of 3G3, C-LGVLGKL-Hc) (peptide)
peptide: CLGVLGKLX
modifications: homocysteine (Hc) at position 9; cyclic thioether
B9: HHTE, LJP 703 (cyclic thioether analog of 3G3, Hc-LGVLGKL-Hc) (peptide)
peptide: XLGVLGKLX
modifications: homocysteine (Hc) at positions 1 and 9; cyclic thioether
B10: 3G3 Ala scan 1: … (peptide)
peptide: CAGVLGKLC
B11: 3G3 Ala scan 2: … (peptide)
peptide: CLAVLGKLC
B12: 3G3 Ala scan 3: … (peptide)
peptide: CLGALGKLC
B13: 3G3 Ala scan 5: … (peptide 925) (peptide)
peptide: CLGVLAKLC
B14: 3G3 Ala scan 7: … (peptide)
peptide: CLGVLGKAC
B15: 3G3 Gly scan 1: … (peptide)
peptide: CGGVLGKLC
B16: 3G3 Gly scan 5: … (peptide)
peptide: CLGVLGKGC
B17: 3G3 branched aliphatic 1: … (peptide)
peptide: CIGVLGKLC
B18: 3G3 branched aliphatic 2: … (peptide)
peptide: CVGVLGKLC
B19: 3G3 conformational scan 11 (Pro scan): … (peptide)
peptide: CPGVLGKLC
B20: 3G3 conformational scan 12 (Pro scan): … (peptide)
peptide: CLPVLGKLC
B21: 3G3 conformational scan 13 (Pro scan): … (peptide)
peptide: CLGPLGKLC
B22: 3G3 conformational scan 15 (Pro scan): … (peptide)
peptide: CLGVLPKLC
B23: 3G3 conformational scan 16 (Pro scan): … (peptide)
peptide: CLGVLGPLC
B24: 3G3 conformational scan 17 (Pro scan): … (peptide)
peptide: CLGVLGKPC
B25: 3G3 conformational scan 18: C-pG-GVLGKLC (peptide)
peptide: C[Phg]GVLGKLC
modifications: not fully specified (bridges); cysteine pairing not given here
B26: 3G3 conformational scan 19: CL-pG-VLGKLC (peptide)
peptide: CL[Phg]VLGKLC
modifications: not fully specified (bridges); cysteine pairing not given here
B27: 3G3 conformational scan 20: CLG-pG-LGKLC (peptide)
peptide: CLG[Phg]LGKLC
modifications: not fully specified (bridges); printed as CLG-pG-LGKLC; cysteine pairing not given here
B28: 3G3 conformational scan 21: CLGV-pG-GKLC (peptide)
peptide: CLGV[Phg]GKLC
modifications: not fully specified (bridges); printed as CLGV-pG-GKLC; cysteine pairing not given here
B29: 3G3 conformational scan 23: CLGVLG-pG-LC (peptide)
peptide: CLGVLG[Phg]LC
modifications: not fully specified (bridges); printed as CLGVLG-pG-LC; cysteine pairing not given here
B30: 3G3 conformational scan 24: CLGVLGK-pG-C (peptide)
peptide: CLGVLGK[Phg]C
modifications: not fully specified (bridges); printed as CLGVLGK-pG-C; cysteine pairing not given here
B31: 3G3 conformational scan 25 (alpha Me AA): C-aiB-GVLGKLC (peptide)
peptide: C[Aib]GVLGKLC
modifications: not fully specified (bridges); printed as C-aiB-GVLGKLC; cysteine pairing not given here
B32: 3G3 conformational scan 26: CL-aiB-VLGKLC (peptide)
peptide: CL[Aib]VLGKLC
modifications: not fully specified (bridges); printed as CL-aiB-VLGKLC; cysteine pairing not given here
B33: 3G3 conformational scan 27: CLG-aiB-LGKLC (peptide)
peptide: CLG[Aib]LGKLC
modifications: not fully specified (bridges); printed as CLG-aiB-LGKLC; cysteine pairing not given here
B34: 3G3 conformational scan 29: CLGVL-aiB-KLC (peptide)
peptide: CLGVL[Aib]KLC
modifications: not fully specified (bridges); printed as CLGVL-aiB-KLC; cysteine pairing not given here
B35: 3G3 conformational scan 30: CLGVLG-aiB-LC (peptide)
peptide: CLGVLG[Aib]LC
modifications: not fully specified (bridges); printed as CLGVLG-aiB-LC; cysteine pairing not given here
B36: 3G3 conformational scan 31: CLGVLGK-aiB-C (peptide)
peptide: CLGVLGK[Aib]C
modifications: not fully specified (bridges); printed as CLGVLGK-aiB-C; cysteine pairing not given here
B37: 3G3 basic amino acid 1: … (peptide)
peptide: CLGVLGRLC
B38: 3G3 basic amino acid 2: CLGVLG-Or-LC (peptide)
peptide: CLGVLG[Orn]LC
modifications: not fully specified (bridges); cysteine pairing not given here
B39: 3G3 D amino acids 1: dP-… (peptide)
peptide: [dP]CLGVLGKLC
modifications: not fully specified (bridges); cysteine pairing not given here
B40: 3G3 D amino acids 4: CLGV-dL-GKLC (peptide)
peptide: CLGV[dL]GKLC
modifications: not fully specified (bridges); cysteine pairing not given here
B41: 3G3 D amino acids 5: CLGVLG-dK-LC (peptide)
peptide: CLGVLG[dK]LC
modifications: not fully specified (bridges); cysteine pairing not given here
B42: 3G3 D amino acids 6: CLGVLGK-dL-C (peptide)
peptide: CLGVLGK[dL]C
modifications: not fully specified (bridges); cysteine pairing not given here
B43: 3G3 D amino acids 10: CLG-dV-dL-GKLC (peptide)
peptide: CLG[dV][dL]GKLC
modifications: not fully specified (bridges); cysteine pairing not given here
B44: 3G3 D amino acids 18: CLGVLG-dK-dL-C (peptide)
peptide: CLGVLG[dK][dL]C
modifications: not fully specified (bridges); cysteine pairing not given here
B45: 3G3 D amino acids 21: CLGVLG-dL-dL-C (peptide)
peptide: CLGVLG[dL][dL]C
modifications: not fully specified (bridges); cysteine pairing not given here
B46: 3G3 D amino acids 22: CLGVL-dA-KLC (peptide)
peptide: CLGVL[dA]KLC
modifications: not fully specified (bridges); cysteine pairing not given here
B47: 3G3 N-Me amino acids 3: CL-nG-VLGKLC (peptide)
peptide: CL[Sar]VLGKLC
modifications: not fully specified (bridges); cysteine pairing not given here
B48: 3G3 N-Me amino acids 4: CLG-nV-LGKLC (peptide)
peptide: CLG[NMeV]LGKLC
modifications: not fully specified (bridges); cysteine pairing not given here
B49: 3G3 N-Me amino acids 5: CLGV-nL-GKLC (peptide)
peptide: CLGV[NMeL]GKLC
modifications: not fully specified (bridges); cysteine pairing not given here
B50: 3G3 N-Me amino acids 6: CLGVL-nG-KLC (peptide)
peptide: CLGVL[Sar]KLC
modifications: not fully specified (bridges); cysteine pairing not given here
B51: 3G3 N-Me amino acids 8: CLGVLGK-nL-C (peptide)
peptide: CLGVLGK[NMeL]C
modifications: not fully specified (bridges); cysteine pairing not given here
B52: 3G3 others 1: …-ATU-Y (peptide)
peptide: CLGVLGKLC
modifications: not fully specified; C-terminal ATU-Y as printed (ATU linker, then Tyr)
B53: 3G3 others 2: Y-ATU-… (peptide)
peptide: {Tyr-ATU}-CLGVLGKLC
modifications: not fully specified (bridges); printed as Y-ATU-CLGVLGKLC; cysteine pairing not given here; reading uncertain
B54: 3G3 others 3: … TGR resin (peptide)
peptide: CLGVLGKLC
modifications: not fully specified; "TGR resin" printed after the C-terminus

Target: ACA-6501 aPL antibody
Assay: competitive ELISA I50; antibody not given, ACA-6501 serum on CL/β2-GPI assumed (Ex. 4B)

IC50 [µg/mL] | Binder
180 | B1
420 | B2
460 | B3
450 | B4
10 | B5
110 | B6
46 | B7
92 | B8
80 | B9
200 | B10
170 | B11
260 | B12
40 | B13
360 | B14
310 | B15
500 | B16
60 | B17
130 | B18
160 | B19
340 | B20
180 | B21
350 | B22
160 | B23
550 | B24
130 | B25
70 | B26
70 | B27

IC50 [µg/mL] | Binder
35 | B28
230 | B29
80 | B30
370 | B31
80 | B32
110 | B33
110 | B34
460 | B35
> 470 | B36
160 | B37
40 | B38
120 | B39
230 | B40
170 | B41
140 | B42
50 | B43
150 | B44
140 | B45
140 | B46
70 | B47
220 | B48
180 | B49
550 | B50
240 | B51
300 | B52
170 | B53
500 | B54

Source: patent publication US6410775
